Measured values as given in patent publication US20030211992A1 (published 2003).
Like-named read-outs stand apart in the source and are kept apart here. Positions of bridges follow the written chain, without caps; N, C: chain ends. No end group written: not given here.

T1: human IGFBP-1 (human, UniProt P08833 26-259)
T1 construct: biotinylated in the ELISA formats; amine-coupled to the chip in peptide kinetics
T1 sequence (looked up): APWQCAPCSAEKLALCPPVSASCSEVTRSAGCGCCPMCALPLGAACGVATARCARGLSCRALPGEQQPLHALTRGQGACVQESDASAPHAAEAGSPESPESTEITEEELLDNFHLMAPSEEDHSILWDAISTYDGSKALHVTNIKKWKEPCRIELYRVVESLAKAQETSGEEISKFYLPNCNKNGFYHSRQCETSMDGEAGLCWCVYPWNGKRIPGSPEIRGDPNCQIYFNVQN

B1: peptide-phage clone 4D3.9 (g8 display) (peptide)
chain: ETVANCDCYMDLCLCYGSDRGGGSGGGAEGDDPAKAAFNSLQASATEYIGYAWAMVVVIVGATIGIKLFKKFTSKAS
notes: polyvalent on M13 phage
B2: peptide-phage clone 4D3.12 (g8 display) (peptide)
chain: AEWAECWIAGDQLLCVGKDNGGGSGGGAEGDDPAKAAFNSLQASATEYIGYAWAMVVVIVGATIGIKLFKKFTSKAS
notes: polyvalent on M13 phage
B3: human acid-labile subunit (protein, UniProt P35858 28-605, looked up)
chain: ADPGTPGEAEGPACPAACVCSYDDDADELSVFCSSRNLTRLPDGVPGGTQALWLDGNNLSSVPPAAFQNLSSLGFLNLQGGQLGSLEPQALLGLENLCHLHLERNQLRSLALGTFAHTPALASLGLSNNRLSRLEDGLFEGLGSLWDLNLGWNSLAVLPDAAFRGLGSLRELVLAGNRLAYLQPALFSGLAELRELDLSRNALRAIKANVFVQLPRLQKLYLDRNLIAAVAPGAFLGLKALRWLDLSHNRVAGLLEDTFPGLLGLRVLRLSHNAIASLRPRTFKDLHFLEELQLGHNRIRQLAERSFEGLGQLEVLTLDHNQLQEVKAGAFLGLTNVAVMNLSGNCLRNLPEQVFRGLGKLHSLHLEGSCLGRIRPHTFTGLSGLRRLFLKDNGLVGIEEQSLWGLAELLELDLTSNQLTHLPHRLFQGLGKLEYLLLSRNRLAELPADALGPLQRAFWLDVSHNRLEALPNSLLAPLGRLRYLSLRNNSLRTFTPQPPGLERLWLEGNPWDCGCPLKALRDFALQNPSAVPRFVQAICEGDDCQPPAYTYNNITCASPPEVVGLDLRDLSEAHFAPC
B4: peptide-phage clone 4D3.11 (g8 display) (peptide)
chain: VAWEVCWDRHDQGYICTTDSGGGSGGGAEGDDPAKAAFNSLQASATEYIGYAWAMVVVIVGATIGIKLFKKFTSKAS
notes: polyvalent on M13 phage
B5: peptide-phage clone 4D3.8 (g8 display) (peptide)
chain: SEEVCWPVAEWYLCNILGPGGGSGGGAEGDDPAKAAFNSLQASATEYIGYAWAMVVVIVGATIGIKLFKKFTSKAS
notes: polyvalent on M13 phage
B6: peptide-phage clone 4C3.2 (g8 display) (peptide)
chain: ELDGWVCIKVGEQNLCYLAEGGGSGGGAEGDDPAKAAFNSLQASATEYIGYAWAMVVVIVGATIGIKLFKKFTSKAS
notes: polyvalent on M13 phage

Experiments:
human IGFBP-1 [1] = biological target: T1, human IGFBP-1; experiment: competitive phage ELISA; the reference itself
[2] = biological target: T2, recombinant human IGFBP-3 (human, UniProt P17936 28-291); experiment: competitive phage ELISA; the reference itself
T2 construct: biotinylated and held on a streptavidin chip in the ALS experiment

human IGFBP-1 [3] = biological target: T1, human IGFBP-1; experiment: competitive phage ELISA
[4] = biological target: T2, recombinant human IGFBP-3; experiment: competitive phage ELISA
human IGFBP-1 [5] = biological target: T1, human IGFBP-1; experiment: competitive phage ELISA; remark: listed apart in the source
[6] = biological target: T2, recombinant human IGFBP-3; experiment: competitive phage ELISA; remark: listed apart in the source
[7] = biological target: T2, recombinant human IGFBP-3; experiment: phage ELISA on IGFBP-3 plate, competitor IGF-1
Procedure: The plates were then washed ten times, as above, and a solution of rabbit anti-phage antibody mixed with a goat-anti-rabbit conjugate of horseradish peroxidase was added. After an incubation of 1 hour at room temperature, the plates were developed with a chromogenic substrate, o-phenylenediamine (Sigma). The reaction was stopped with addition of ½ volume of 2.5 M H₂SO₄. Optical density at 490 nm was measured on a spectrophotometric plate reader.
In each case, the phagemid clone was grown from a single colony overnight at 37° C. in a culture volume of 5 ml. The phage particles were precipitated and resuspended in 0.5 ml of PBS buffer.

[8] = biological target: IGFBP-3/E3A/F49A IGF-1 binary complex (human) (UniProt P17936); experiment: BIAcore, ALS dissociation from the IGFBP-3/IGF-1 complex
[9] = biological target: IGFBP-3/F49A IGF-1 binary complex (human) (UniProt P17936); experiment: as above
human IGFBP-1 [10] = biological target: T1, human IGFBP-1; experiment: BIAcore inhibition of IGFBP-1 binding to IGF-1
human IGFBP-1 [11] = biological target: T1, human IGFBP-1; experiment: stated with the explant experiment

T2 sequence (P17936 28-291 limits assumed): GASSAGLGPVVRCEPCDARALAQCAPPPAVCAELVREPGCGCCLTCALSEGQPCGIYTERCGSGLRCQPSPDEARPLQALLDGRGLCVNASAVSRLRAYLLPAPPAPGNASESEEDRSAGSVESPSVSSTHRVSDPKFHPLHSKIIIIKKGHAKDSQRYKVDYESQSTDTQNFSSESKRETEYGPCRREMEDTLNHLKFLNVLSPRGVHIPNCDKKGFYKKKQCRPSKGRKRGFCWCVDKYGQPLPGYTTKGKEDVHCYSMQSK
Sequence of IGFBP-3/E3A/F49A IGF-1 binary complex (human) (P17936 28-291, chain 1 of 2): as the sequence (P17936 28-291 limits assumed) above
Sequence of IGFBP-3/E3A/F49A IGF-1 binary complex (human) (chain, as listed by the source F49A F49A, chain 2 of 2): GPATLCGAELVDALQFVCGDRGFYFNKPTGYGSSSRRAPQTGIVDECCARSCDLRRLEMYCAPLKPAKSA
Sequence of IGFBP-3/F49A IGF-1 binary complex (human) (P17936 28-291, chain 1 of 2): as the sequence (P17936 28-291 limits assumed) above
Sequence of IGFBP-3/F49A IGF-1 binary complex (human) (chain, as listed by the source F49A F49A, chain 2 of 2): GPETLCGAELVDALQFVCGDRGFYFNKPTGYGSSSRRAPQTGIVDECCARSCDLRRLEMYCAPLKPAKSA

Molecule	IC50 (human IGFBP-1 [3])	IC50 [4]	relative IC50 (mut/G1S-A70V) (human IGFBP-1 [3])	relative IC50 (mut/G1S-A70V) [4]	% inhibition of phage binding by 100 nM IGF-1 [7]	other results
IGF-1 G1S-A70V on phage (from UniProt P69168 267-424) (ligand)	8.2 nM	0.75 nM	–	–	–	relative IC50 (mut/G1S-A70V) (human IGFBP-1 [1]): 1; relative IC50 (mut/G1S-A70V) [2]: 1; IC50 (human IGFBP-1 [5]): 8.5 nM; IC50 [6]: 0.5 nM
T41A IGF-1 (G1S-A70V background) on phage (from UniProt P69168 267-424) (ligand)	13.7 nM	0.43 nM	1.7	0.6	–	–
V44A IGF-1 (G1S-A70V background) on phage (from UniProt P69168 267-424) (ligand)	18.8 nM	1.03 nM	2.3	1.4	–	–
V70A IGF-1 (single mutant of G1S-A70V) on phage (from UniProt P69168 267-424) (ligand)	19.1 nM	0.68 nM	2.3	0.9	–	–
Y31A IGF-1 (G1S-A70V background) on phage (from UniProt P69168 267-424) (ligand)	6.8 nM	0.73 nM	0.8	1	–	–
Y60A IGF-1 (G1S-A70V background) on phage (from UniProt P69168 267-424) (ligand)	6.6 nM	0.52 nM	0.8	0.7	–	–
B1	–	–	–	–	> 40%	–
B2	–	–	–	–	> 40%	–
B3	–	–	–	–	–	koff [8]: 0.0004 s⁻¹; koff [9]: 0.00042 s⁻¹
B4	–	–	–	–	5%	–
Ac-LEWLAEKYFE (linker 2-10 via 1,5‑diaminopentane) [(i+8)A]	–	–	–	–	–	fold potency reduction against BP1-01 (human IGFBP-1 [10]): > 200
B5	–	–	–	–	> 40%	–
B6	–	–	–	–	> 40%	–
CRAGPLQWLCEKYF-NH2 (disulfide 1-10 (inferred)) [BP1-16]	–	–	–	–	–	binding result (human IGFBP-1 [11]): binds
